{
  "source": "paper PMC12014896",
  "about": "(2025)",
  "data": [
    {"target": "SARS-CoV-2 spike RBD (Wuhan-Hu-1) (Severe acute respiratory syndrome …, UniProt P0DTC2)", "assay": "SPR", "units": {"Kd": "nM"}, "values": [
      {"binder": "COVIC-61 (antibody) QVQLQESGGGLVQAGGSLRLSCAASGRTFSEYAMGWFRQAPGKEREFVATISWSGGSTYYTDSVKGRFTISRDNAKNTVYLQMNSLKPDDTAVYYCAAAGLGTVVSEWDYDYDYWGQGTQVTVSSGGSGGSQVQLQESGGGLVQAGGSLRLSCAASGRTFSEYAMGWFRQAPGKEREFVATISWSGGSTYYTDSVKGRFTISRDNAKNTVYLQMNSLKPDDTAVYYCAAAGLGTVVSEWDYDYDYWGQGTQVTVSSGGGGSGGGGSKKKPLDGEYFTLQIRGRERFEMFRELNEALELKDAQAGKEPG", "Kd": 195},
      {"binder": "COVIC-21 (antibody, V domains shown) VH: EVQLLESGGGLVQPGGSLRLSCAASGFTFSDFAMAWVRQAPGKGLEWVSAISGSGDITYYADSVKGRFTISRDNSKNTLYLQMNSLRAEDTAVYYCAREADGLHSPWHFDLWGQGTLVTVSS", "Kd": 0.208},
      {"binder": "COVIC-332 (antibody, V domains shown) VH: QVQLVQSGAEVKKPGSSLKVSCKASGGTFNNFAISWVRQAPGQGPEWMGRINPILSAAKYAQKFQGRLTITADKSTTTAYMELSSLRSEDTAVYYCAPTGTGESWWFDPWGQGTLVTVSS VL: QSVLTQPPSASGTPGQRVTISCSGSSSNIGTNYVYWYQQLPGTAPKVLIYGNNQRPSGVPDRFSGSKSGSSASLAISGLRSEDEADYYCAAWDDSLSGPVFGGGTKLTVL", "Kd": 0.111},
      {"binder": "COVIC-307 (antibody, V domains shown) VH: QVQLVQSGAEVKKPGSSVKVSCKASGGTFGISWVRQAPGQGLEWMGRIIPILGTANHAQKFQGRVTITADKSTGTVYMELSSLRSEDTAVYYCARDGDSGSYYETLGFDYWGQGTLVTVSS VL: QSALTQPPSASGSPGQSVTISCTGTSSDVGGYNYVSWYQQHPGKAPKLMIYEVNKRPSGVPDRFSGSKSGNTASLTVSGLQAEDEADYYCSSYAGSNNLVFGGGTKLTVL", "Kd": 2.36},
      {"binder": "COVIC-299 (antibody, V domains shown) VH: EVQLVESGGGLVQPGGSLRLSCAASGLIVSRNYMSWVRQAPGKGLEWVSVIYSGGSTFYADSVKGRFTISRDNSKNTLYLQMNSLRAEDTAVYYCARDLNIAGGFDIWGQGTMVTVSS VL: DIQLTQSPSFLSASVGDRVTITCRASQGISSYLAWYQQKPGKAPKLLIYAASTLQSGVPSRFSGSGSGTDFTLTISSLQPEDFATYYCQHLNIDPITFGQGTRLEIK", "Kd": 0.332},
      {"binder": "COVIC-42 (antibody, V domains shown) VH: EVQLVESGGGLIQPGGSLRLSCAASGVIVSSNYMSWVRQAPGKGLEWVSVIYSGGSTYYADSVKGRFTISRDNSKNTLYLQMNSLRAEDTAVYYCARDLDVSGGMDVWGQGTTVTVSS VL: not shown", "Kd": 11},
      {"binder": "COVIC-321 (antibody) chain 1: not shown chain 2: EVQLLESGGGLVQPGGSLRLSCAASGRTFSEYAMGWFRQAPGKGLEFVSTISWSGGSTYYADSVKGRFTISRDNSKNTLYLQMNSLRAEDTAVYYCAAAGLGTVVSEWDYDYDYWGQGTLVTVSSGGGGSGGGGSKRTVAAPSVFIFPPSDEQLKSGTASVVCLLNNFYPREAKVQWKVDNALQSGNSQESVTEQDSKDSTYSLSSTLTLSKADYEKHKVYACEVTHQGLSSPVTKSFNRGEC", "Kd": 30},
      {"binder": "COVIC-266 (antibody, V domains shown) VH: EVQLVESGGGLVQPGGSLRLSCKASGISVAPHAVTWVRQAPGKGLEWIGVIASNADTYYASWAKGRFTISRDNSKNTLYLQMNSLRAEDTAVYYCARHPGSAGYGYTYYYAMDPWGQGTLVTVSS VL: DIQMTQSPSSLSASVGDRVTITCKASEDIRYGLNWYQQKPGKAPKLLIYGANTLEAGVPSRFSGSGSGTDFTLTISSLQPEDFATYYCQQGYSTPLTFGGGTKVEIK", "Kd": 2.41},
      {"binder": "COVIC-386 (antibody, V domains shown) VH: EVQLVESGGGLVQPGGSLRLSCKASGYSFRHQAMTWVRQAPGKGLEWIGVIASNADTYYASWAKGRFTISRDNSKNTLYLQMNSLRAEDTAVYYCARHPGSAGYGYTYYYAMDPWGQGTLVTVSS VL: DIQMTQSPSSLSASVGDRVTITCQASERVFYGIDWYQQKPGKAPKLLIYGASALWHGVPSRFSGSGSGTDYTLTISSLQPEDFATYYCQQGYMVPIGFGGGTKVEIK", "Kd": 0.177},
      {"binder": "COVIC-362 (antibody, V domains shown) VH: EVQLVESGGGLVQPGGSLRLSCKASGISVAPHAVTWVRQAPGKGLEWIGVIASNADTYYASWAKGRFTISRDNSKNTLYLQMNSLRAEDTAVYYCARHPGSAGYGYTYYYAMDPWGQGTLVTVSS VL: DIQMTQSPSSLSASVGDRVTITCQASERVFYGIDWYQQKPGKAPKLLIYGASALWHGVPSRFSGSGSGTDYTLTISSLQPEDFATYYCQQGYMVPIGFGGGTKVEIK", "Kd": 0.00985},
      {"binder": "COVIC-337 (antibody, V domains shown) VH: EVQLVQSGAEVKKPGSSVKVSCKASGGTFSMHTIRWVRQAPGQGLEWMGRIIPMLGIVNYAQKFQGRVTISADKSTSTAYMELSSLTSEDTAMYYCAKGSHDVFDIWGQGTMVTVSS VL: not shown", "Kd": 3.02},
      {"binder": "COVIC-35 (antibody, V domains shown) VH: EVQLVESGGGVVQPGRSLRLSCAASGFTFSSYAMHWVRQAPGKGLEWVAVISYDGSYKYYADSVKGRFTISRDNSKNTLYLQMNSLTAEDTAVYYCAREGSRQWLVIYFDYWGQGTLVTVSS VL: AIRMTQSPSSLSASVGDRVTITCRASQSISSYLNWYQQKPGKAPKLLIYAASSLQSGVPSRFSGSGSGTDFTLTISSLQPEDFATYYCQQSYTTFIYTFGQGTKLEIK", "Kd": 2.81},
      {"binder": "COVIC-78 (antibody, V domains shown) VH: QVQLVQSGAEVKKPGSSVKVSCKASGGTFSTSTFNWVRQAPGQGLEWMGGIIPIFGTVNYAQKFQGRVTITADESTGTAYMELSSLRSEDTAVYYCATLGQWDLLPRWGQGTLVTVSS VL: KIVLTQSPDTLSLSPGERATLSCRASQSVDSNYLAWYQQKPGQAPRLLIYGASSRATGIPDRFSGSGSGTDFTLTISRLEPEDFAVYYCQQYGSSYTFGQGTKLEIK", "Kd": 393},
      {"binder": "COVIC-123 (antibody) QVQLQESGGGLVQAGGSLRLSCAASGRTFSEYAMGWFRQAPGKEREFVATISWSGGSTYYTDSVKGRFTISRDNAKNTVYLQMNSLKPDDTAVYYCAAAGLGTVVSEWDYDYDYWGQGTQVTVSSGGSGGSQVQLQESGGGLVQAGGSLRLSCAASGRTFSEYAMGWFRQAPGKEREFVATISWSGGSTYYTDSVKGRFTISRDNAKNTVYLQMNSLKPDDTAVYYCAAAGLGTVVSEWDYDYDYWGQGTQVTVSSGGGGSGGGGSEPKSCDKTHTCPPCPAPELLGGKKKPLDGEYFTLQIRGRERFEMFRELNEALELKDAQAGKEPGGGGGSGGGGSQVQLQESGGGLVQAGGSLRLSCAASGRTFSEYAMGWFRQAPGKEREFVATISWSGGSTYYTDSVKGRFTISRDNAKNTVYLQMNSLKPDDTAVYYCAAAGLGTVVSEWDYDYDYWGQGTQVTVSS", "Kd": 206},
      {"binder": "COVIC-126 (antibody) chain 1: QVQLQESGGGLVQAGGSLRLSCAASGRTFSEYAMGWFRQAPGKEREFVATISWSGGSTYYTDSVKGRFTISRDNAKNTVYLQMNSLKPDDTAVYYCAAAGLGTVVSEWDYDYDYWGQGTQVTVSSGGSGGSQVQLQESGGGLVQAGGSLRLSCAASGRTFSEYAMGWFRQAPGKEREFVATISWSGGSTYYTDSVKGRFTISRDNAKNTVYLQMNSLKPDDTAVYYCAAAGLGTVVSEWDYDYDYWGQGTQVTVSSGGGGSGGGGSASTKGPSVFPLAPSSKSTSGGTAALGCLVKDYFPEPVTVSWNSGALTSGVHTFPAVLQSSGLYSLSSVVTVPSSSLGTQTYICNVNHKPSNTKVDKKVEPKSCDKTHTKKKPLDGEYFTLQIRGRERFEMFRELNEALELKDAQAGKEPGGGGGSGGGGSQVQLQESGGGLVQAGGSLRLSCAASGRTFSEYAMGWFRQAPGKEREFVATISWSGGSTYYTDSVKGRFTISRDNAKNTVYLQMNSLKPDDTAVYYCAAAGLGTVVSEWDYDYDYWGQGTQVTVSSGGSGGSQVQLQESGGGLVQAGGSLRLSCAASGRTFSEYAMGWFRQAPGKEREFVATISWSGGSTYYTDSVKGRFTISRDNAKNTVYLQMNSLKPDDTAVYYCAAAGLGTVVSEWDYDYDYWGQGTQVTVSS chain 2: QVQLQESGGGLVQAGGSLRLSCAASGRTFSEYAMGWFRQAPGKEREFVATISWSGGSTYYTDSVKGRFTISRDNAKNTVYLQMNSLKPDDTAVYYCAAAGLGTVVSEWDYDYDYWGQGTQVTVSSGGSGGSQVQLQESGGGLVQAGGSLRLSCAASGRTFSEYAMGWFRQAPGKEREFVATISWSGGSTYYTDSVKGRFTISRDNAKNTVYLQMNSLKPDDTAVYYCAAAGLGTVVSEWDYDYDYWGQGTQVTVSSGGGGSGGGGSKRTVAAPSVFIFPPSDEQLKSGTASVVCLLNNFYPREAKVQWKVDNALQSGNSQESVTEQDSKDSTYSLSSTLTLSKADYEKHKVYACEVTHQGLSSPVTKSFNRGEC", "Kd": 139},
      {"binder": "COVIC-119 (antibody) chain 1: QVQLQESGGGLVQAGGSLRLSCAASGRTFSEYAMGWFRQAPGKEREFVATISWSGGSTYYTDSVKGRFTISRDNAKNTVYLQMNSLKPDDTAVYYCAAAGLGTVVSEWDYDYDYWGQGTQVTVSSGGSGGSQVQLQESGGGLVQAGGSLRLSCAASGRTFSEYAMGWFRQAPGKEREFVATISWSGGSTYYTDSVKGRFTISRDNAKNTVYLQMNSLKPDDTAVYYCAAAGLGTVVSEWDYDYDYWGQGTQVTVSSGGGGSGGGGSASTKGPSVFPLAPSSKSTSGGTAALGCLVKDYFPEPVTVSWNSGALTSGVHTFPAVLQSSGLYSLSSVVTVPSSSLGTQTYICNVNHKPSNTKVDKKVEPKSCDKTHTKKKPLDGEYFTLQIRGRERFEMFRELNEALELKDAQAGKEPG chain 2: QVQLQESGGGLVQAGGSLRLSCAASGRTFSEYAMGWFRQAPGKEREFVATISWSGGSTYYTDSVKGRFTISRDNAKNTVYLQMNSLKPDDTAVYYCAAAGLGTVVSEWDYDYDYWGQGTQVTVSSGGSGGSQVQLQESGGGLVQAGGSLRLSCAASGRTFSEYAMGWFRQAPGKEREFVATISWSGGSTYYTDSVKGRFTISRDNAKNTVYLQMNSLKPDDTAVYYCAAAGLGTVVSEWDYDYDYWGQGTQVTVSSGGGGSGGGGSKRTVAAPSVFIFPPSDEQLKSGTASVVCLLNNFYPREAKVQWKVDNALQSGNSQESVTEQDSKDSTYSLSSTLTLSKADYEKHKVYACEVTHQGLSSPVTKSFNRGEC", "Kd": 179},
      {"binder": "COVIC-152 (antibody, V domains shown) VH: QVQLQESGPGLVKPSQTLSLTCTVSGGSISSYGYYWSWIRQHPGKGLEWIGYIYYSGSTYYNPSLKSRVTMSVDTSKNQLSLRLNSVSAADTAVYYCARDFGGNSNYFDYWGQGTLVTVSS VL: AIQLTQSPSSLSASVGDRVTITCRASQGISSALAWYQQKPGKAPNLLIYDASSLESGVPSRFSGSGSGTDFTLTISSLQPEDFATYYCQQFNSSPLTFGGGTKVEIKR", "Kd": 3.02},
      {"binder": "COVIC-23 (antibody, V domains shown) VH: EVQLLESGGGLVQPGGSLRLSCAASGFTFSNYPMNWVRQAPGKGLEWVSTISGSGGNTFYADSVKGRFTISRDNSKNTLYLQMNSLRAEDTAVYYCVRHDEYSFDYWGQGTLVTVSS", "Kd": 71.3}
    ]}
  ]
}
